Publication PMC6548132, “Engineered SUMO/protease system identifies Pdr6 as a bidirectional nuclear transport receptor” (The Journal of Cell Biology, 2019)

Target: T1, recombinant Pdr6 (S. cerevisiae, UniProt P32767 1-1081)
T1 construct: Pdr6/Kap122, S. cerevisiae; also called Kap122; source: E. coli NEB express, purified (Ni2+ chelate beads)
T1 sequence (looked up): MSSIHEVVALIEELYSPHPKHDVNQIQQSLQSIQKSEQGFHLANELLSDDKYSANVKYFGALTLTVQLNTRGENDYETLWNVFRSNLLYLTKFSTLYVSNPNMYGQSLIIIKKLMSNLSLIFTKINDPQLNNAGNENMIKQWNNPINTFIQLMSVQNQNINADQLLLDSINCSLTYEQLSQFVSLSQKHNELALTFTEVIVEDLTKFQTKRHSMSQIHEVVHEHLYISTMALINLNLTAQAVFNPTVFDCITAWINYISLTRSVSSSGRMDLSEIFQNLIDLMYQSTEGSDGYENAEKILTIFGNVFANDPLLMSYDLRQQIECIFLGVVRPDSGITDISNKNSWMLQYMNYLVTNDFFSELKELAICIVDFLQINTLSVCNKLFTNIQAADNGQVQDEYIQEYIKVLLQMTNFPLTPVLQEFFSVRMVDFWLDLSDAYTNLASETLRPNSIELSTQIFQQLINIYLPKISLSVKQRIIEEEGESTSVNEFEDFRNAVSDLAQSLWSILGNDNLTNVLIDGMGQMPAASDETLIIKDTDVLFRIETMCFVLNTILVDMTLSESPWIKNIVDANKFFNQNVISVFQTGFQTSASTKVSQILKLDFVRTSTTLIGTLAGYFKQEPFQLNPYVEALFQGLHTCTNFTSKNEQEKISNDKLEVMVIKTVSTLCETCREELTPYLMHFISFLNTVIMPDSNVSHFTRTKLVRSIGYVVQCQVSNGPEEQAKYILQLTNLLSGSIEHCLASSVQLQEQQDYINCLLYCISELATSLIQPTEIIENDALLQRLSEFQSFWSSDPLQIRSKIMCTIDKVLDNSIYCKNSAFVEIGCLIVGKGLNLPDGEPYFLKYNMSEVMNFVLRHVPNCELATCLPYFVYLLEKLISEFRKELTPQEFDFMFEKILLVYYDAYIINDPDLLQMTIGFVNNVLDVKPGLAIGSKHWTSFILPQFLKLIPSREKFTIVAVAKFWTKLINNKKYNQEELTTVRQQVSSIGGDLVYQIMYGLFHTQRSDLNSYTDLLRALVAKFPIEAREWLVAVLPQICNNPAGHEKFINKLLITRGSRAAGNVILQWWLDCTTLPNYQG
Experiment: pull-down; 1.5 µM H14-ZZ-NEDD8-Ubc9 as bait, 3 µM recombinant Pdr6, with or without 3 µM RanGTP and 3 µM eIF5A; anti-ZZ/ED affibody matrix, elution by NEDP1 tag cleavage; 1 h at 4°, 45 mM Tris/HCl pH 7.5, 100 mM NaCl, 2 mM MgCl2, 5 mM DTT; SDS-PAGE/Coomassie
Settings: both partners purified

binding result: binds
B1: H14-ZZ-NEDD8–tagged Ubc9 (enzyme, yeast (S. cerevisiae), UniProt P50623 1-157, looked up)
chain: MSSLCLQRLQEERKKWRKDHPFGFYAKPVKKADGSMDLQKWEAGIPGKEGTNWAGGVYPITVEYPNEYPSKPPKVKFPAGFYHPNVYPSGTICLSILNEDQDWRPAITLKQIVLGVQDLLDSPNPNSPAQEPAWRSFSRNKAEYDKKVLLQAKQYSK
notes: Ubc9, SUMO-conjugating E2 enzyme of yeast; Tag is cut by NEDP1 only at elution; also called immobilized Ubc9; source: E. coli NEB express, purified (Ni2+ chelate beads)
